± gives the uncertainty stated by the source.
Experiment: abundance fitness (aPCA) (normalised: wild type 0, dead -1); higher = more abundant; growth selection in yeast, the domain comes from the species named
Details: Homo sapiens

Substance	abundance fitness
Scaffold attachment factor B2 L38Y, Q14151	-0.612 ± 0.15
Scaffold attachment factor B2 L42A, Q14151	-0.325 ± 0.085
Scaffold attachment factor B2 L42C, Q14151	-0.181 ± 0.11
Scaffold attachment factor B2 L42E, Q14151	-0.381 ± 0.084
Scaffold attachment factor B2 L42F, Q14151	-0.994 ± 0.16
Scaffold attachment factor B2 L42G, Q14151	-0.439 ± 0.07
Scaffold attachment factor B2 L42M, Q14151	-0.505 ± 0.16
Scaffold attachment factor B2 L42N, Q14151	-0.606 ± 0.12
Scaffold attachment factor B2 L42P, Q14151	-0.358 ± 0.12
Scaffold attachment factor B2 L42Q, Q14151	-0.827 ± 0.29
Scaffold attachment factor B2 L42R, Q14151	-0.668 ± 0.077
Scaffold attachment factor B2 L42S, Q14151	-0.697 ± 0.089
Scaffold attachment factor B2 L42T, Q14151	-0.44 ± 0.12
Scaffold attachment factor B2 L42W, Q14151	-1.1 ± 0.083
Scaffold attachment factor B2 L47A, Q14151	-0.393 ± 0.079
Scaffold attachment factor B2 L47C, Q14151	-0.339 ± 0.096
Scaffold attachment factor B2 L47D, Q14151	-0.491 ± 0.11
Scaffold attachment factor B2 L47E, Q14151	-0.394 ± 0.098
Scaffold attachment factor B2 L47G, Q14151	-0.616 ± 0.068
Scaffold attachment factor B2 L47H, Q14151	-0.789 ± 0.25
Scaffold attachment factor B2 L47I, Q14151	-0.534 ± 0.19
Scaffold attachment factor B2 L47K, Q14151	-0.246 ± 0.11

Substance	abundance fitness
Scaffold attachment factor B2 L47M, Q14151	-0.265 ± 0.13
Scaffold attachment factor B2 L47N, Q14151	-0.877 ± 0.23
Scaffold attachment factor B2 L47P, Q14151	-0.194 ± 0.45
Scaffold attachment factor B2 L47Q, Q14151	-0.287 ± 0.12
Scaffold attachment factor B2 L47R, Q14151	-0.524 ± 0.076
Scaffold attachment factor B2 L47S, Q14151	-0.632 ± 0.093
Scaffold attachment factor B2 L47T, Q14151	-0.409 ± 0.13
Scaffold attachment factor B2 L47V, Q14151	-0.622 ± 0.083
Scaffold attachment factor B2 L47W, Q14151	-0.696 ± 0.11
Scaffold attachment factor B2 L47Y, Q14151	-0.714 ± 0.1
Scaffold attachment factor B2 L56A, Q14151	-0.374 ± 0.091
Scaffold attachment factor B2 L56D, Q14151	-0.349 ± 0.13
Scaffold attachment factor B2 L56F, Q14151	-0.816 ± 0.12
Scaffold attachment factor B2 L56G, Q14151	-0.285 ± 0.079
Scaffold attachment factor B2 L56H, Q14151	-0.296 ± 0.094
Scaffold attachment factor B2 L56K, Q14151	-0.524 ± 0.096
Scaffold attachment factor B2 L56M, Q14151	-0.179 ± 0.099
Scaffold attachment factor B2 L56N, Q14151	-1.2 ± 0.43
Scaffold attachment factor B2 L56P, Q14151	-0.319 ± 0.13
Scaffold attachment factor B2 L56Q, Q14151	-0.378 ± 0.28
Scaffold attachment factor B2 L56R, Q14151	-0.39 ± 0.07
Scaffold attachment factor B2 L56S, Q14151	-0.434 ± 0.1

Substance	abundance fitness
Scaffold attachment factor B2 L56T, Q14151	-0.546 ± 0.12
Scaffold attachment factor B2 L56V, Q14151	-0.369 ± 0.082
Scaffold attachment factor B2 L56W, Q14151	-0.631 ± 0.086
Scaffold attachment factor B2 L56Y, Q14151	-1.01 ± 0.23
Scaffold attachment factor B2 L60A, Q14151	-0.323 ± 0.094
Scaffold attachment factor B2 L60C, Q14151	-0.691 ± 0.14
Scaffold attachment factor B2 L60D, Q14151	-0.019 ± 0.14
Scaffold attachment factor B2 L60F, Q14151	-0.448 ± 0.16
Scaffold attachment factor B2 L60G, Q14151	-0.25 ± 0.084
Scaffold attachment factor B2 L60K, Q14151	-0.204 ± 0.14
Scaffold attachment factor B2 L60M, Q14151	-0.343 ± 0.15
Scaffold attachment factor B2 L60N, Q14151	-0.35 ± 0.22
Scaffold attachment factor B2 L60P, Q14151	-0.102 ± 0.14
Scaffold attachment factor B2 L60Q, Q14151	-0.271 ± 0.15
Scaffold attachment factor B2 L60S, Q14151	-0.398 ± 0.16
Scaffold attachment factor B2 L60V, Q14151	-0.361 ± 0.09
Scaffold attachment factor B2 M57A, Q14151	-0.454 ± 0.087
Scaffold attachment factor B2 M57C, Q14151	-0.504 ± 0.12
Scaffold attachment factor B2 M57D, Q14151	-0.788 ± 0.18
Scaffold attachment factor B2 M57E, Q14151	-0.292 ± 0.11
Scaffold attachment factor B2 M57G, Q14151	-0.631 ± 0.09
Scaffold attachment factor B2 M57H, Q14151	-0.392 ± 0.14

Substance	abundance fitness
Scaffold attachment factor B2 M57I, Q14151	-0.319 ± 0.099
Scaffold attachment factor B2 M57K, Q14151	-0.473 ± 0.13
Scaffold attachment factor B2 M57L, Q14151	-0.088 ± 0.11
Scaffold attachment factor B2 M57N, Q14151	-0.492 ± 0.14
Scaffold attachment factor B2 M57P, Q14151	-0.66 ± 0.093
Scaffold attachment factor B2 M57Q, Q14151	-0.364 ± 0.094
Scaffold attachment factor B2 M57S, Q14151	-0.49 ± 0.088
Scaffold attachment factor B2 M57T, Q14151	-0.363 ± 0.1
Scaffold attachment factor B2 M57V, Q14151	-0.189 ± 0.08
Scaffold attachment factor B2 M57W, Q14151	-0.791 ± 0.11
Scaffold attachment factor B2 N46A, Q14151	-0.317 ± 0.076
Scaffold attachment factor B2 N46C, Q14151	-0.656 ± 0.12
Scaffold attachment factor B2 N46D, Q14151	-0.104 ± 0.12
Scaffold attachment factor B2 N46E, Q14151	-0.131 ± 0.092
Scaffold attachment factor B2 N46G, Q14151	0.006 ± 0.084
Scaffold attachment factor B2 N46H, Q14151	-0.432 ± 0.16
Scaffold attachment factor B2 N46K, Q14151	-0.214 ± 0.088
Scaffold attachment factor B2 N46L, Q14151	-0.355 ± 0.087
Scaffold attachment factor B2 N46M, Q14151	-0.394 ± 0.17
Scaffold attachment factor B2 N46P, Q14151	-0.514 ± 0.087
Scaffold attachment factor B2 N46Q, Q14151	0.023 ± 0.14
Scaffold attachment factor B2 N46R, Q14151	-0.358 ± 0.073

Substance	abundance fitness
Scaffold attachment factor B2 N46S, Q14151	-0.135 ± 0.088
Scaffold attachment factor B2 N46T, Q14151	-0.444 ± 0.099
Scaffold attachment factor B2 N46V, Q14151	-0.515 ± 0.081
Scaffold attachment factor B2 N46W, Q14151	-1.28 ± 0.2
Scaffold attachment factor B2 N46Y, Q14151	-0.484 ± 0.11
Scaffold attachment factor B2 N52A, Q14151	-0.132 ± 0.088
Scaffold attachment factor B2 N52D, Q14151	0.11 ± 0.13
Scaffold attachment factor B2 N52E, Q14151	0.123 ± 0.11
Scaffold attachment factor B2 N52F, Q14151	-0.701 ± 0.18
Scaffold attachment factor B2 N52G, Q14151	-0.037 ± 0.087
Scaffold attachment factor B2 N52H, Q14151	-0.719 ± 0.14
Scaffold attachment factor B2 N52I, Q14151	-0.237 ± 0.12
Scaffold attachment factor B2 N52K, Q14151	-0.123 ± 0.093
Scaffold attachment factor B2 N52L, Q14151	-0.511 ± 0.081
Scaffold attachment factor B2 N52M, Q14151	-0.442 ± 0.11
Scaffold attachment factor B2 N52P, Q14151	-0.074 ± 0.088
Scaffold attachment factor B2 N52Q, Q14151	-0.63 ± 0.31
Scaffold attachment factor B2 N52R, Q14151	-0.229 ± 0.081
Scaffold attachment factor B2 N52T, Q14151	-0.037 ± 0.093
Scaffold attachment factor B2 N52V, Q14151	-0.116 ± 0.089
Scaffold attachment factor B2 N52W, Q14151	-1.06 ± 0.13
Scaffold attachment factor B2 N52Y, Q14151	-0.587 ± 0.28

Source: the Human Domainome abundance scans (Beltran et al. 2025)
